Biological target: Ptch1-GFP (mouse) (UniProt Q61115)
Experiment: cell surface binding assay

Chain of UniProt Q61115 (Q61115 whole entry): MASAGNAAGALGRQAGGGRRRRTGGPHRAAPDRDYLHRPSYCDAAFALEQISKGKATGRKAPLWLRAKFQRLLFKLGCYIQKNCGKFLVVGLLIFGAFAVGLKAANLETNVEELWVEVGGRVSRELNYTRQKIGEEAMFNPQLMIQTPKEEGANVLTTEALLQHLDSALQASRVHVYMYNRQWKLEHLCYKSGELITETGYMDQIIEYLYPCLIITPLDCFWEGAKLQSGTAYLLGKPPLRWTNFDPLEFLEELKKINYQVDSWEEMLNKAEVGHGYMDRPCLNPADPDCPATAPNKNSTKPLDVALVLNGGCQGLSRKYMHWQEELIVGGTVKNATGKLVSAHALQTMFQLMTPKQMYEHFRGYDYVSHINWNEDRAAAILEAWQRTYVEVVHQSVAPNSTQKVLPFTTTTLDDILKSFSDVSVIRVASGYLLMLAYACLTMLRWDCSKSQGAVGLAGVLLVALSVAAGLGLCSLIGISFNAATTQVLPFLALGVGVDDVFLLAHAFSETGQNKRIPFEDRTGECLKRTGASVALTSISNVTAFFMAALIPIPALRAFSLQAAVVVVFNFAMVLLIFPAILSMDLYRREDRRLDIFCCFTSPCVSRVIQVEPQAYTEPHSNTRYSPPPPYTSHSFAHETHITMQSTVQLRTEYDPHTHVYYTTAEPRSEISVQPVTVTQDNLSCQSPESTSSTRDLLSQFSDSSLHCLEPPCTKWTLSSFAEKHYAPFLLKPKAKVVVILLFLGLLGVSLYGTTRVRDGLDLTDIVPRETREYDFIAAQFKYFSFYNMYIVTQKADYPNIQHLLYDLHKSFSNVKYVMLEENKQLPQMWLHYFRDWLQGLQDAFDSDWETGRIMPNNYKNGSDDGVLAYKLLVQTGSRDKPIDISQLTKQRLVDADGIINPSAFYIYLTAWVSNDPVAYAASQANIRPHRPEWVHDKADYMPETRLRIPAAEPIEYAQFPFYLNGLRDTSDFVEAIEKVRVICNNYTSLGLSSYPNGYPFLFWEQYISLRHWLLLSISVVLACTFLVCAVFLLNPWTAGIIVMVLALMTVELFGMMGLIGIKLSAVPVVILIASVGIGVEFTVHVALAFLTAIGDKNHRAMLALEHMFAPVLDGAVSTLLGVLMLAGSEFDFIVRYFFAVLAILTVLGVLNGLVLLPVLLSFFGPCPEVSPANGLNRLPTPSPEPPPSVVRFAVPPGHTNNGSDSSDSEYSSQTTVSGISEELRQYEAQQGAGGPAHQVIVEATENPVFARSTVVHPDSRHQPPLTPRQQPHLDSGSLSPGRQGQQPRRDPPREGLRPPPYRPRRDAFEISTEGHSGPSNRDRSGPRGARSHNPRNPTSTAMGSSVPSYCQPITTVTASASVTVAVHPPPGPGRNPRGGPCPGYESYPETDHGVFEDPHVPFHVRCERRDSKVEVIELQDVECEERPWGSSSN

Row | binding relative to Boc ecto-Fc | Substance
1 | 60% | Boc-Fc construct containing the FNIIIb domain alone (Fc fusion)
2 | 60% | Boc-Fc construct containing the FNIIIa domain alone (Fc fusion)
